Measurements as given in patent US20070224205A1.

Target: Toll-like Receptor 5 (UniProt O60602)
Test: cell-based or functional assay

B1: ngSTF2.HA1-1His(PR8) (protein)
chain: AQVINTNSLSLLTQNNLQKSQSALGTAIERLSSGLRINSAKDDAAGQAIANRFTANIKGLTQASRNANDGISIAQTTEGALNEINNNLQRVRELAVQSAQSTNSQSDLDSIQAEITQRLNEIDRVSGQTQFNGVKVLAQDNTLTIQVGANDGETIDIDLKQINSQTLGLDSLNVQKAYDVKDTAVTTKAYANQGTTLDVSGLDDAAIKAATGGTQGTASVTGGAVKFDADNNKYFVTIGGFTGADAAKNGDYEVNVATDGTVTLAAGATKTTMPAGATTKTEVQELKDTPAVVSADAKNALIAGGVDATDANGAELVKMSYTDKNGKTIEGGYALKAGDKYYAADYDEATGAIKAKTTSYTAADGTTKTAANQLGGVDGKTEVVTIDGKTYQASKAAGHDFKAQPELAEAAAKTTENPLQKIDAALAQVDALRSDLGAVQNRFNSAITNLGNTVNQLSEARSRIEDSDYATEVSQMSRAQILQQAGTSVLAQANQVPQNVLSLLASGSGSGSSHNGKLCRLKGIAPLQLGKCNIAGWLLGNPECDPLLPVRSWSYIVETPNSENGICYPGDFIDYEELREQLSSVSSFERFEIFPKESSWPNHNTNGVTAACSHEGKSSFYRNLLWLTEKEGSYPKLKNSYVNKKGKEVLVLWGIHHPPNSKEQQNLYQNENAYVSVVTSNYNRRFTPEIAERPKVRDQAGRMNYYWTLLKPGDTIIFEANGNLIAPMYAFALSRGFGSGIITSQASMHECNTKCQTPLGAIQSSLPYQNIHPVTIGECPKYVRHHHHHH
  TLR activity (EC50, ng/ml); IL-8 secretion by HEK293 cells: 30 ng/mL
